Biological target: the molecule itself
Experiment: crystal structure

B1: copper-containing nitrite reductase from Geobacillus thermodenitrificans (enzyme)
chain: ESKNKTAATQQSEPNVIAAHKGVNQAPVPLKMERVGPHDVHIEMTAQITDIEIDKGKIYKAWTFNGQAPGPLVVVNEGDTIHFTLKNMDPVVPHSMDFHAVHASPSKDFIDVMPNKSGTFTYPANKPGVFMYHCGTKPVLQHIANGMHGVIIVKPKNGYPTDKEVDREYVLIQNEWYKYNDMNDFQNGVPSYVVFSSKALKPGDPNTNGDTFTLKEKPLLAKVGEKIRLYINNVGPNEVSSFHVVGTVFDDVYLDGNPNNHLQGMQTVMLPASGGAVVEFTVTRPGTYPIVTHQFNHAQKGAVAMLKVTETGEDDGTETSGH
- stoichiometry N: 3
